This note sets out measurements from the RNAGym collection of RNA variant scans (doi:10.1093/molbev/msab373).

B1: Azoarcus group I ribozyme (parent)
chain: GUGCCUUGCGCCGGGAAACCACGCAAGGGAUGGUGUCAAAUUCGGCGAAACCUAAGCGCCCGCCCGGGCGUAUGGCAACGCCGAGCCAAGCUUCGGCGCCUGCGCCGAUGAAGGUGUAGAGACUAGACGGCACCCACCUAAGGCAAACGCUAUGGUGAAGGCAUAGUCCAGGGAGUGGCGAAAGUCACACAAACCGG

The variants in this data set derive from B1. Briefly: reverse-splicing fitness (ratio to wild type); higher = more active; in vitro selection; Mg2+ level not given. The method, boiled down:
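An in vitro group I ribozyme library with randomized positions was T7-transcribed and gel-purified. In triplicate, 10 pmol RNA in EPPS pH 7.5 was reacted with 50 pmoles of a 30-nt RNA substrate for 1 h at 37 °C across several added MgCl2 levels (1–48 mM), then stopped with EDTA. Products were reverse transcribed from a substrate-complementary primer, PCR-amplified and sequenced (HiSeq 4000). Fitness is a variant's read proportion after selection over that before, normalised to wild type.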
As to C82U C169A U176C, the reverse-splicing fitness was 0.0154.

A111U C150A C169U U176C: the reverse-splicing fitness amounted to 0.0188.

Turning to C82G A111C A145C C150G C169A U176A, the reverse-splicing fitness is 0.00825.

In the case of C82G A111G A145G C150A C169G U176G, the reverse-splicing fitness is 0.006.

On to C82A A111C A120G A145C C150A C169U, for which the reverse-splicing fitness is 0.00671.

A120C A145U C150G C169U U176G: the reverse-splicing fitness was found to be 0.00515.

Turning to C82G A111U A120U A145C C150U C169G U176G, the reverse-splicing fitness was determined as 0.0021.

On to C82A A111U A120U C150U, for which the reverse-splicing fitness worked out at 0.016.

As to C82G A111G A120G A145C C169G U176A, the reverse-splicing fitness is 0.0262.

With C82U A111G A120C C150A C169G U176C, the reverse-splicing fitness came out at 0.0191.

Regarding C82U A120G A145U C150U C169G U176C, the reverse-splicing fitness is 0.0139.

In the case of C82A A111G A120U A145C C150G C169A U176A, the reverse-splicing fitness turned out to be 0.00214.

For C82A A111C A120C A145G C150U U176C, the reverse-splicing fitness was 0.0208.

Take C82G A111G A120U U176A: the reverse-splicing fitness is 0.018.

Turning to C82G A120G A145U C150G C169G U176G, the reverse-splicing fitness was found to be 0.00385.

C82U A111C A120U C150U: the reverse-splicing fitness worked out at 0.0166.

C82U A120C C150U C169U U176C: the reverse-splicing fitness was found to be 0.0177.

On to C82G A111C A120U A145U C150U C169G U176G, for which the reverse-splicing fitness stood at 0.00273.

With C82A A120G A145G C150G C169A U176C, the reverse-splicing fitness worked out at 0.0128.

With A145U C150G C169U U176C, the reverse-splicing fitness was 0.0406.

As for C82U A111C A120C A145C C150A C169G U176G, the reverse-splicing fitness amounted to 0.00588.

In the case of C82G A111U A120C C150A C169G U176C, the reverse-splicing fitness was 0.0267.

In the case of C82G A120G A145G C150A C169A U176G, the reverse-splicing fitness was determined as 0.00618.

On to C82A A120G A145C C150U, for which the reverse-splicing fitness was 0.0107.

Take C82U A111U A145U C150A U176G: the reverse-splicing fitness is 0.00782.

As to C82G A120C A145G C150G U176G, the reverse-splicing fitness is 0.00687.

On to C82U A111C A145G C150A C169U U176A, for which the reverse-splicing fitness was determined as 0.0144.

Take C82G A111G A120C C150U C169U U176G: the reverse-splicing fitness is 0.00815.

As to C82U A111U A120C A145C C169G, the reverse-splicing fitness turned out to be 0.00709.

C82A A120C A145U C150U C169A U176A: the reverse-splicing fitness is 0.0178.

As for A111G A120U A145C C150G C169G U176A, the reverse-splicing fitness is 0.00296.

For the variant C82A A111G A120C A145C C150U C169G U176C, the reverse-splicing fitness worked out at 0.0213.

Take C82U A111G A120C A145G C150G C169G U176G: the reverse-splicing fitness came out at 0.00471.

Turning to A111C A145G C150A C169A, the reverse-splicing fitness was determined as 0.0128.

On to C82U A111U A120G C169A U176A, for which the reverse-splicing fitness was determined as 0.0178.

With A111C A120G C150U C169A, the reverse-splicing fitness amounted to 0.0604.

In the case of C82U A145G C169A, the reverse-splicing fitness is 0.00962.

Turning to C82G A120C A145G C169U U176C, the reverse-splicing fitness amounted to 0.0174.

Regarding A111G A120G A145C C169G, the reverse-splicing fitness turned out to be 0.3.

For the variant A120C A145G C150U C169G U176C, the reverse-splicing fitness came out at 0.0182.

On to C82A A111G A120U A145U C150G C169U U176G, for which the reverse-splicing fitness amounted to 0.0026.

For A120G A145G C169A, the reverse-splicing fitness amounted to 0.424.

For C82G A111G C169U U176G, the reverse-splicing fitness amounted to 0.00625.

For the variant C82A A111U A120U A145G C150A U176G, the reverse-splicing fitness worked out at 0.00328.

With C82U A111U A120U A145C C150G C169G U176G, the reverse-splicing fitness came to 0.00175.

Turning to C82G A111C A145C C150U U176A, the reverse-splicing fitness was 0.0341.

For A111G A120G A145C C150A C169U, the reverse-splicing fitness was found to be 0.0192.

As to A111G A120G A145C C150A C169G, the reverse-splicing fitness amounted to 0.0196.

As to C82A C150G C169U U176G, the reverse-splicing fitness is 0.00641.

For the variant C82A A111C A120C A145U C150A C169A U176C, the reverse-splicing fitness was 0.0154.

For the variant C82G A111G A120C A145G C150U C169A U176A, the reverse-splicing fitness amounted to 0.0156.

For A120C A145C C169U, the reverse-splicing fitness came to 0.431.

For A120C A145C C169A, the reverse-splicing fitness was 0.0312.

On to A120G A145G C169G U176G, for which the reverse-splicing fitness stood at 0.0103.

C82U A111G A120C A145U C150G C169A U176G: the reverse-splicing fitness is 0.00477.

Turning to C82A A111C A145G C169A U176C, the reverse-splicing fitness amounted to 0.029.

For A111C C169U U176A, the reverse-splicing fitness was 0.0264.

C82U A111G A120C A145G C150G C169A U176C: the reverse-splicing fitness is 0.0107.

Consider C82G A111C A120C A145G C150U C169A U176G, for which the reverse-splicing fitness came out at 0.00796.

C82G A111C A120C A145G C150U C169A U176A: the reverse-splicing fitness is 0.0153.

Take C82G A120U C150A C169U U176G: the reverse-splicing fitness was found to be 0.00185.

As for A111C A145U C150G C169G U176C, the reverse-splicing fitness is 0.00594.

Regarding C82A A111G A120C C150U C169A U176A, the reverse-splicing fitness was 0.0187.

On to C82A A111G A120C C150U C169U, for which the reverse-splicing fitness is 0.0116.

For C82U A120G A145U C150A C169G U176A, the reverse-splicing fitness turned out to be 0.0114.

On to C82A A111U A120U A145U C169A, for which the reverse-splicing fitness worked out at 0.00249.

As for C82U A111C A145C C150U C169G U176G, the reverse-splicing fitness is 0.0077.

With C82U A120C C169A U176G, the reverse-splicing fitness was determined as 0.00409.

On to A111C A145G U176C, for which the reverse-splicing fitness is 0.401.

As for A120G C150U C169G U176A, the reverse-splicing fitness came out at 0.157.

Regarding C82U A111C A145U C150A C169G U176C, the reverse-splicing fitness was 0.0178.

A111G A120U A145U C150U U176C: the reverse-splicing fitness was 0.279.

For A111U A145U C150U C169A, the reverse-splicing fitness is 0.0209.

In the case of C82U A111G A145U C150G U176A, the reverse-splicing fitness worked out at 0.0137.

With C82A A111C A120C A145C U176A, the reverse-splicing fitness is 0.0123.

In the case of C82A A111C A145C C169G U176G, the reverse-splicing fitness was determined as 0.00783.

For the variant C82U A111G A120U A145U C150G C169A, the reverse-splicing fitness was 0.00272.

As to C82G A145U C150U C169A U176C, the reverse-splicing fitness stood at 0.00851.

With C82U A111G A145C C150G C169U, the reverse-splicing fitness was found to be 0.00804.

As to C82A A111U A120C A145U C150G C169U U176C, the reverse-splicing fitness turned out to be 0.0117.

Regarding C82A A111U A120C A145U C150G C169U U176G, the reverse-splicing fitness was determined as 0.00741.

For A120G A145C U176A, the reverse-splicing fitness stood at 0.179.

With C82U A145C C150U, the reverse-splicing fitness amounted to 0.172.
